Test [1] concerns the target T1, cynomolgus PD-L1, his tagged (cPD-L1-his) (cynomolgus (Macaca fascicularis), UniProt G7PSE7 19-238).
T1 construct: also called cyPD-L1-His; Cyno PD-L1
The test is described as follows: BLI (ForteBio Octet), cPD-L1-his analyte, 1:1 fit. As to the method: (§1) Characterization of chimeric anti-PD-L1 antibodies. ForteBio octet binding of purified chimeric antibodies and recombinant hPD-L1-his and cPD-L1-his was measured. Chimeric human antibodies were captured on AHC (Anti-human IgG-Capture) Biosensor, hPD-L1-his or cPD-L1-his analytes were titrated from 100 nM in a 2× series dilution. The buffer reference was subtracted from the signal and aligned to the baseline. KD, Kon and Koff values were generated using 1:1 fitting model as described above.

Test [2] deals with T1, cynomolgus PD-L1, his tagged …. Kind of test: BLI (ForteBio Octet), IgG on AHC sensor, cPD-L1-his analyte, 1:1 fit. As to the method: as §1
A general note: Biolayer interferometry detects binding as a change in optical thickness at a sensor tip.

Test [3] concerns the target T2, human PD-L1, his tagged (hPD-L1-his) (human, UniProt Q9NZQ7 19-238, limits assumed).
T2 construct: also called huPD-L1-His; recombinant human PD-L1; not shown: his tag
Kind of test: BLI (ForteBio Octet), recombinant human PD-L1.

For test [4], the target named is T2, human PD-L1, his tagged (hPD-L1-his). Kind of test: BLI (ForteBio Octet), hPD-L1-his. The procedure: as §1
Selected h769 antibodies were tested in the blocking ELISA as described in Example 3 herein. […] Selected h769 humanized PD-L1 antibodies were characterized following removal of the deamidation motif in CDR-L3. FIG. 25 depicts the ForteBio octet binding of purified humanized antibodies and recombinant hPD-L1-his was measured.

For test [5], the target named is human PD-L1 (hPD-L1) coated on ELISA wells, Example 7 (human, UniProt Q9NZQ7 19-238, limits assumed). The test is described as follows: blocking ELISA: titrated + biotinylated hPD-1-Fc 1 ug/mL on coated hPD-L1. From the text:
The plate was developed with TMB and Stop buffer and the absorbance at 450 nm was read using a SpectraMax plate reader.
(In general: In an ELISA, binding on a coated surface is turned into a signal by an enzyme label.)

In test [6] the target is T3, human PD-L1 expressed on cells (HCC827, NCI-H292, CHO-PD-L1, engineered CHO-K1) (human, UniProt Q9NZQ7 19-290).
T3 construct: whole, on cells; Endogenous on the human lung lines HCC827 and NCI-H292; transfected on CHO cells; also called PD-L1 on HCC827; PD-L1 on NCI-H292
Kind of test: flow cytometry on HCC827 cells, apparent Kd; calculated using data points up to 3.7 nM. As to the method:
(§2) The ability of PD-L1 antibody sialidase conjugates to bind PD-L1 on HCC827 and NCI-H292 cells was examined next. […] After washing with staining buffer, cells were incubated with AF647 Goat anti-human IgG(H+L) in staining buffer at 4° C. for 30 min. After 2× wash with staining buffer, cells were fixed and run on FACSCelesta.

Test [7] has as its target T1, cynomolgus PD-L1, his tagged …. Kind of test: BLI (ForteBio Octet), cynomolgus PD-L1.
For test [8], the target named is T3, human PD-L1 expressed on cells (HCC827, …). Kind of test: cell-based or functional assay.
The target is the same in test [9]. The test is described as follows: flow cytometry on NCI-H292 cells, apparent Kd; calculated using data points up to 3.7 nM. As to the method:
as §2

Test [10] has as its target T2, human PD-L1, his tagged (hPD-L1-his). The test is described as follows: BLI (ForteBio Octet), human PD-L1.

For orientation: koff means a measure of how fast the partners let go of each other. Usually kon stands for the rate constant with which the complex forms. The term IC50 denotes the midpoint of a concentration-inhibition curve.

T1 sequence (G7PSE7 entry or part of it limits assumed, form in doubt): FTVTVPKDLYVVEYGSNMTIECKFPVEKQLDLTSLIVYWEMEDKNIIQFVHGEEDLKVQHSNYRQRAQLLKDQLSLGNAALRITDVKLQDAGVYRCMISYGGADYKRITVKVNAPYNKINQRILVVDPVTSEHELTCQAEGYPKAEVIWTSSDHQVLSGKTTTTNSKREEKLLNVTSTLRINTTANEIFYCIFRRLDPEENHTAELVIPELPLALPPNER
T3 sequence (Q9NZQ7 19-290, change not shown): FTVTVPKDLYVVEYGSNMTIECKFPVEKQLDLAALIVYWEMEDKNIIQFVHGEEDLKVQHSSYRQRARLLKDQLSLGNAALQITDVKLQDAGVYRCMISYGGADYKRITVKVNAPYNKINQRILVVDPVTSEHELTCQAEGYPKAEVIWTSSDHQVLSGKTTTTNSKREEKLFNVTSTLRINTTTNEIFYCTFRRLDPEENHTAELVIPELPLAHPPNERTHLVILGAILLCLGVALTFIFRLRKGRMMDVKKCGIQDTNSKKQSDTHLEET
T2 sequence (Q9NZQ7 19-238 limits assumed): as the sequence (G7PSE7 entry or part of it limits assumed, form in doubt) above, with T33A, S34A, N62S, Q68R, R82Q, L173F, A185T, I192T, L215H counted along it
Sequence of human PD-L1 (hPD-L1) coated on ELISA wells, Example 7 (Q9NZQ7 19-238 limits assumed): as the sequence (G7PSE7 entry or part of it limits assumed, form in doubt) above, with T33A, S34A, N62S, Q68R, R82Q, L173F, A185T, I192T, L215H counted along it

B1: Avelumab (antibody, human IgG1, lambda, V domains shown)
VH: EVQLLESGGGLVQPGGSLRLSCAASGFTFSSYIMMWVRQAPGKGLEWVSSIYPSGGITFYADTVKGRFTISRDNSKNTLYLQMNSLRAEDTAVYYCARIKLGTVTTVDYWGQGTLVTVSS
VL: QSALTQPASVSGSPGQSITISCTGTSSDVGGYNYVSWYQQHPGKAPKLMIYDVSNRPSGVSNRFSGSKSGNTASLTISGLQAEDEADYYCSSYTSSSTRVFGTGTKVTVLG
Consider B1, for which the Kd in test [1] is 1.7 nM; in [2] it was 0.994 nM.

B2: h769-N93T (h769.T), humanized 769-hIgG1 variant (antibody, V domains shown)
VH: EVQLVQSGAEVKKPGATVKISCKVSGFNIKDTYMHWVQQAPGKGLEWMGLIDPANDNTIYAEKFQGRVTITADTSTDTAYMELSSLRSEDTAVYYCAREGYGGSYGEGYWGQGTLVTVSS
VL: EIVMTQSPPTLSLSPGERVTLSCRASQSVSNDLSWYQQKPGQAPRLLIYYASIRFTGIPARFSGSGSGTDFTLTISSLQPEDFAVYYCQQDYTSPWTFGQGTKVEIK
notes: Human IgG1
Take B2: in [3], the Kd was found to be 1.76 nM, the koff worked out at 0.000629 s⁻¹ and the on-rate (kon) amounted to 357000 M⁻¹ s⁻¹. Also, in test [4], the Kd amounted to 1.82 nM, the koff was found to be 0.000597 s⁻¹ and the kon was 328000 M⁻¹ s⁻¹.

B3: h769.T-1A (antibody, V domains shown)
VH: B2 VH
VL: B2 VL
notes: bivalent
Consider B3, for which, in test [5], the IC50 came out at 1.44 nM. Also, the Kd was 0.125 nM in test [6], 1.53 nM in [7], 0.0973 nM in test [9] and 2.13 nM in test [10]. Also, the koff was 0.000443 s⁻¹ in [7] and 0.000728 s⁻¹ in test [10]. Moreover, the kon in test [7] was determined as 297000 M⁻¹ s⁻¹; in [10] it was 346000 M⁻¹ s⁻¹. The “EC50 (NFAT-luciferase fold induction)” value in test [8] turned out to be 0.56 nM.

Values taken from patent publication US20240067729A1 (PALLEON PHARMACEUTICALS, published 2024).
